These results are taken from the Immune Epitope Database (IEDB).

pKd: −log10 of the molar value.

Targets include HLA-A*02:06; HLA-A*33:01; HLA-A*11:01; HLA-A*31:01; HLA-A*03:01; HLA-A*68:01.
What all share (test): IEDB peptide-MHC binding, purified MHC/competitive/radioactivity; filed as Kd, often an IC50 or EC50 that approximates it; ≥ and ≤ were set here for values at or beyond the usual limits of such assays
[1] abbreviates: source organism: Dengue virus 2 Jamaica/1409/1983.
Where [2] appears, read: source organism: Vaccinia virus WR.
Where [3] appears, read: source organism: SARS coronavirus Tor2.
[4] abbreviates: source organism: Mammarenavirus lassaense.
[5] abbreviates: source organism: Vaccinia virus Copenhagen.
[6] abbreviates: source organism: Mammarenavirus machupoense.
[7] abbreviates: source organism: Mammarenavirus juninense.
Where [8] appears, read: source organism: Lassa virus Josiah.

As to ASAWTLYAV, the pKd with HLA-A*02:06 (setting [1]) was 8.09.
On to ELNGKNIEDV, for which, in the assay with HLA-A*02:06 (source organism: Homo sapiens), the pKd was no more than 4.16.
Regarding FVVTTDISEM, the negative-log Kd (pKd) with HLA-A*02:06 (source organism: Dengue virus 3 Martinique/1243/1999) was 6.53.
For the sequence RALIFILLTA, in the assay with HLA-A*02:06 (setting [1]), the negative-log Kd (pKd) was 6.85.
Regarding RLTDTEYRAR, the pKd with HLA-A*33:01 (setting [2]) was 6.33; with HLA-A*11:01 (setting [2]), 6.10; with HLA-A*31:01 (setting [2]), 8.88; with HLA-A*03:01 (setting [2]), 6.18; with HLA-A*68:01 (setting [2]), 6.09.
As to RLYECLYRNR, the pKd was 5.61 with HLA-A*33:01 (setting [3]); 6.22 in the assay with HLA-A*11:01 (setting [3]); 8.68 with HLA-A*31:01 (setting [3]); 8.16 in the assay with HLA-A*03:01 (setting [3]); 6.64 in the assay with HLA-A*68:01 (setting [3]).
In the case of SARNKLFKR, the pKd in the assay with HLA-A*33:01 (setting [2]) was 7.16; in the assay with HLA-A*11:01 (setting [2]) it was 5.24; with HLA-A*31:01 (setting [2]), 8.90; with HLA-A*03:01 (setting [2]) it was no more than 4.23; with HLA-A*68:01 (setting [2]), 6.36.
For the sequence SGSCLNNEK, the negative logarithm of the Kd (pKd) with HLA-A*33:01 (setting [4]) was no more than 4.22; in the assay with HLA-A*11:01 (setting [4]), 6.25; in the assay with HLA-A*31:01 (setting [4]) it was no more than 4.22; with HLA-A*03:01 (setting [4]), no more than 4.69; in the assay with HLA-A*68:01 (setting [4]), 6.06.
As for SIGNVTRLFY, the pKd in the assay with HLA-A*33:01 (setting [2]) was 4.76; in the assay with HLA-A*11:01 (setting [2]) it was 7.60; in the assay with HLA-A*31:01 (setting [2]) it was 5.52; with HLA-A*03:01 (setting [2]), 8.53; with HLA-A*68:01 (setting [2]) it was 5.69.
For the sequence SIILANERY, the pKd with HLA-A*33:01 (setting [2]) was no more than 4.11; with HLA-A*11:01 (setting [2]), 6.63; in the assay with HLA-A*31:01 (setting [2]) it was 4.70; with HLA-A*03:01 (setting [2]), no more than 4.11; with HLA-A*68:01 (setting [2]), 6.22.
For the sequence SLAIKNYYRK, the pKd is 5.93 with HLA-A*33:01 (setting [5]); 7.97 in the assay with HLA-A*11:01 (setting [5]); 6.53 with HLA-A*31:01 (setting [5]); 7.45 with HLA-A*03:01 (setting [5]); 5.75 in the assay with HLA-A*68:01 (setting [5]).
In the case of SMGFKVTTR, the negative-log Kd (pKd) is 6.78 with HLA-A*33:01 (setting [2]); 5.33 in the assay with HLA-A*11:01 (setting [2]); 8.71 in the assay with HLA-A*31:01 (setting [2]); 5.30 in the assay with HLA-A*03:01 (setting [2]); 5.90 in the assay with HLA-A*68:01 (setting [2]).
The like results for SMTYLYNKY were, in that order, 5.06, 5.78, no more than 4.60, 5.00 and 5.76.
With SSFDYCGVNH, the negative logarithm of the Kd (pKd) in the assay with HLA-A*33:01 (setting [6]) was 5.19; with HLA-A*11:01 (setting [6]) it was 5.32; in the assay with HLA-A*31:01 (setting [6]), 5.71; with HLA-A*03:01 (setting [6]), 5.09; with HLA-A*68:01 (setting [6]), 6.31.
Regarding STELIRRVR, the pKd in the assay with HLA-A*33:01 (setting [2]) was 5.88; with HLA-A*11:01 (setting [2]), 6.90; with HLA-A*31:01 (setting [2]), 7.04; in the assay with HLA-A*03:01 (setting [2]), 7.86; with HLA-A*68:01 (setting [2]), 7.24.
As to SWPVQCPLDH, the negative logarithm of the Kd (pKd) is 4.71 with HLA-A*33:01 (setting [7]); no more than 4.16 with HLA-A*11:01 (setting [7]); 8.01 with HLA-A*31:01 (setting [7]); no more than 4.15 with HLA-A*03:01 (setting [7]); no more than 4.15 with HLA-A*68:01 (setting [7]).
For the sequence TCNDHYLCLR, the pKd was 6.14 in the assay with HLA-A*33:01 (setting [6]); no more than 4.21 with HLA-A*11:01 (setting [6]); 6.91 with HLA-A*31:01 (setting [6]); no more than 4.48 with HLA-A*03:01 (setting [6]); 5.66 with HLA-A*68:01 (setting [6]).
Turning to TCQGSDDIR, the pKd with HLA-A*33:01 (setting [8]) was 4.92; in the assay with HLA-A*11:01 (setting [8]), no more than 4.11; in the assay with HLA-A*31:01 (setting [8]), no more than 4.65; with HLA-A*03:01 (setting [8]) it was no more than 4.11; with HLA-A*68:01 (setting [8]) it was 4.84.
In the case of TFVNFNSVK, the pKd in the assay with HLA-A*33:01 (setting [2]) is 6.71; with HLA-A*11:01 (setting [2]) it was 7.67; with HLA-A*31:01 (setting [2]) it was 6.99; with HLA-A*03:01 (setting [2]), 6.11; in the assay with HLA-A*68:01 (setting [2]), 7.90.
The matching figures for TIDKSSPLY: no more than 4.11, 7.09, no more than 4.27, 7.19 and 6.69.
The like results for TIQRFSSLRR were, in that order, 8.01, 8.73, 8.81, 7.10 and 8.14.
TMHANYIFWR: the pKd is 6.92 with HLA-A*33:01 (setting [3]); 6.90 with HLA-A*11:01 (setting [3]); 7.95 in the assay with HLA-A*31:01 (setting [3]); 5.90 with HLA-A*03:01 (setting [3]); 7.45 with HLA-A*68:01 (setting [3]).
Turning to TQMRTPLHK, the pKd in the assay with HLA-A*33:01 (setting [2]) is no more than 4.11; with HLA-A*11:01 (setting [2]) it was 7.11; with HLA-A*31:01 (setting [2]) it was 5.45; with HLA-A*03:01 (setting [2]), 5.93; with HLA-A*68:01 (setting [2]), 5.05.
For the sequence TQNVLYENQK, the pKd with HLA-A*33:01 (setting [3]) was no more than 4.15; with HLA-A*11:01 (setting [3]), 6.28; with HLA-A*31:01 (setting [3]), 4.88; with HLA-A*03:01 (setting [3]), no more than 4.53; in the assay with HLA-A*68:01 (setting [3]) it was 5.51.
On to TSASEIKDR, for which the pKd is 5.87 with HLA-A*33:01 (setting [2]); 5.77 with HLA-A*11:01 (setting [2]); 4.72 with HLA-A*31:01 (setting [2]); no more than 4.11 with HLA-A*03:01 (setting [2]); 8.00 with HLA-A*68:01 (setting [2]).
As to TVYVYSRVK, the pKd in the assay with HLA-A*33:01 (setting [3]) was 5.97; in the assay with HLA-A*11:01 (setting [3]), 6.84; with HLA-A*31:01 (setting [3]) it was 6.11; with HLA-A*03:01 (setting [3]), 7.17; with HLA-A*68:01 (setting [3]) it was 6.04.
Consider VFIHMVRCCK, for which the pKd is 6.67 with HLA-A*33:01 (setting [2]); 5.32 in the assay with HLA-A*11:01 (setting [2]); 7.36 with HLA-A*31:01 (setting [2]); no more than 4.68 with HLA-A*03:01 (setting [2]); no more than 4.61 with HLA-A*68:01 (setting [2]).
On to VLAYMLFTK, for which the pKd with HLA-A*33:01 (setting [3]) was 5.72; with HLA-A*11:01 (setting [3]) it was 9.05; with HLA-A*31:01 (setting [3]), 6.65; with HLA-A*03:01 (setting [3]), 9.75; with HLA-A*68:01 (setting [3]), 8.10.
Take VLSAATETY: the pKd was no more than 4.11 in the assay with HLA-A*33:01 (setting [2]); 5.19 with HLA-A*11:01 (setting [2]); no more than 4.16 in the assay with HLA-A*31:01 (setting [2]); 5.52 with HLA-A*03:01 (setting [2]); 5.83 with HLA-A*68:01 (setting [2]).
Consider VSKHWELTNK, for which the negative logarithm of the Kd (pKd) was 4.92 with HLA-A*33:01 (setting [2]); 6.80 with HLA-A*11:01 (setting [2]); 5.75 with HLA-A*31:01 (setting [2]); 6.17 with HLA-A*03:01 (setting [2]); 5.82 with HLA-A*68:01 (setting [2]).
On to VVMAYVGIK, for which the pKd with HLA-A*33:01 (setting [2]) is no more than 4.63; in the assay with HLA-A*11:01 (setting [2]) it was 8.91; with HLA-A*31:01 (setting [2]) it was 5.61; in the assay with HLA-A*03:01 (setting [2]) it was 7.73; in the assay with HLA-A*68:01 (setting [2]), 7.72.
On to VVMHINSPFK, for which the negative-log Kd (pKd) with HLA-A*33:01 (setting [2]) is 4.94; with HLA-A*11:01 (setting [2]), 8.59; with HLA-A*31:01 (setting [2]), 6.91; in the assay with HLA-A*03:01 (setting [2]), 8.08; in the assay with HLA-A*68:01 (setting [2]), 7.43.
Turning to WALRHPGFTV, the pKd in the assay with HLA-A*02:06 (source organism: Dengue virus 1 Brazil/97-11/1997) is 7.08.
Regarding WIMLLQFAY, the pKd with HLA-A*33:01 (setting [3]) is no more than 4.11; with HLA-A*11:01 (setting [3]) it was 4.85; with HLA-A*31:01 (setting [3]), 5.27; with HLA-A*03:01 (setting [3]), 5.39; with HLA-A*68:01 (setting [3]), no more than 4.64.
The like results for YFVCWHTHNY were, in that order, 5.74, 5.09, 5.63, 5.82 and 5.31.
Regarding YILQLIRHGR, the pKd in the assay with HLA-A*33:01 (setting [2]) is 6.59; in the assay with HLA-A*11:01 (setting [2]) it was no more than 4.56; in the assay with HLA-A*31:01 (setting [2]) it was 7.40; with HLA-A*03:01 (setting [2]), 4.95; with HLA-A*68:01 (setting [2]), 7.99.
The matching figures for YSFKLILAEY: 5.10, 5.14, 6.18, 5.09 and 5.44.
The like results for YSKKFQESFY were, in that order, no more than 4.15, 5.13, 4.84, 5.57 and 5.75.
On to YVGIKLGDK, for which the negative logarithm of the Kd (pKd) with HLA-A*33:01 (setting [2]) is no more than 4.30; in the assay with HLA-A*11:01 (setting [2]), 6.19; with HLA-A*31:01 (setting [2]), no more than 4.60; in the assay with HLA-A*03:01 (setting [2]), 6.01; with HLA-A*68:01 (setting [2]), 5.68.
The like results for YVKALTKNY were, in that order, no more than 4.11, 4.90, no more than 4.11, 5.80 and 5.74.
